Sequences and labels used below:
B1: 4H6-mHvKv-IgG1 (antibody, V domains shown)
VH: EVKLQESGPSLVKPSQTLSLTCSVTGDSVSSGYWNWIRKFPGNKLEYMGFISYSGSTYYTPSLKSRISITRDTSKNQFYLQLNSVTTEDTATYFCARFRRYDDGVDYWGQGTTLTVSS
VL: DIQMTQSPSSLSASLGERVSLTCRASHEISGYLSWIQQKPDGTIKRLINAASTLASGVPKRFSGSRSGSEYSLTINSLESEDFADYYCLQYSSYPWTFGGGTKLEIK
notes: Chimeric
B2: 6A7-mHvKv-IgG4 (antibody, V domains shown)
VH: QVQLQQPGAELVKPGASVKLSCKASGYTFISYYIYWVKQRPGQGLEWIGGINPRNGGTNFNEKFKSKATLTVDKSSSTAYMQLSSLTSEDSAVYYCTRHGNGVYWGQGTTLTVSS
VL: DVVMTQTPLSLPVSLGDQASISCRSSQSLLHSNGNTYLHWYLQKPGQSPNHLIYQVSNRFSGVPDRFSGSGSGTDFTLKISRVEAEDLGVYFCSQTTHVPWTFGGGTKLEIK
notes: Chimeric; also called chimeric anti-hCD40 antibody 6A7-mHvKv-IgG4
B3: 6A7-H2K2-IgG4 (antibody, V domains shown)
VH: QVQLVQSGAEVKKPGASVKVSCKASGYTFISYYIYWVRQAPGQGLEWIGGINPRNGGTNFNEKFKSRATLTVDTSISTAYMELSRLRSEDTAVYYCARHGNGVYWGQGTTVTVSS
VL: DVVMTQSPLSLPVTLGQPASISCRSSQSLLHSNGNTYLHWYQQRPGQSPNHLIYQVSNRFSGVPDRFSGSGSGTDFTLKISRVEAEDVGVYFCSQTTHVPWTFGGGTKVEIK
notes: Humanized
B4: 6A7-H1K3-IgG4 (antibody, V domains shown)
VH: QVQLVQSGAEVKKPGASVKVSCKASGYTFISYYIYWVRQAPGQGLEWMGGINPRNGGTNFNEKFKSRVTLTVDTSISTAYMELSRLRSEDTAVYYCARHGNGVYWGQGTTVTVSS
VL: DVVMTQSPLSLPVTLGDPASISCRSSQSLLHSNGNTYLHWYQQRPGQSPNHLIYQVSNRFSGVPDRFSGSGSGTDFTLKISRVEAEDVGVYFCSQTTHVPWTFGGGTKLEIK
notes: Humanized
B5: 6A7-H3K1-IgG4 (antibody, V domains shown)
VH: QVQLVQSGAEVKKPGASVKVSCKASGYTFISYYIYWVRQAPGQGLEWIGGINPRNGGTNFNEKFKSRATLTVDTSISTAYMELSRLRSEDTAVYYCTRHGNGVYWGQGTTVTVSS
VL: DVVMTQSPLSLPVTLGQPASISCRSSQSLLHSNGNTYLHWFQQRPGQSPRHLIYQVSNRFSGVPDRFSGSGSGTDFTLKISRVEAEDVGVYYCSQTTHVPWTFGGGTKVEIK
notes: Humanized
B6: 6A7-H2K3-IgG4 (antibody, V domains shown)
VH: QVQLVQSGAEVKKPGASVKVSCKASGYTFISYYIYWVRQAPGQGLEWIGGINPRNGGTNFNEKFKSRATLTVDTSISTAYMELSRLRSEDTAVYYCARHGNGVYWGQGTTVTVSS
VL: DVVMTQSPLSLPVTLGDPASISCRSSQSLLHSNGNTYLHWYQQRPGQSPNHLIYQVSNRFSGVPDRFSGSGSGTDFTLKISRVEAEDVGVYFCSQTTHVPWTFGGGTKLEIK
notes: Humanized
B7: 6A7-H1K1-IgG4 (antibody, V domains shown)
VH: QVQLVQSGAEVKKPGASVKVSCKASGYTFISYYIYWVRQAPGQGLEWMGGINPRNGGTNFNEKFKSRVTLTVDTSISTAYMELSRLRSEDTAVYYCARHGNGVYWGQGTTVTVSS
VL: DVVMTQSPLSLPVTLGQPASISCRSSQSLLHSNGNTYLHWFQQRPGQSPRHLIYQVSNRFSGVPDRFSGSGSGTDFTLKISRVEAEDVGVYYCSQTTHVPWTFGGGTKVEIK
notes: Humanized
B8: 6A7-H4K3-IgG4 (antibody, V domains shown)
VH: QVQLVQSGAEVKKPGASVKLSCKASGYTFISYYIYWVKQAPGQGLEWIGGINPRNGGTNFNEKFKSRATLTVDTSISTAYMELSRLRSEDTAVYYCTRHGNGVYWGQGTTLTVSS
VL: DVVMTQSPLSLPVTLGDPASISCRSSQSLLHSNGNTYLHWYQQRPGQSPNHLIYQVSNRFSGVPDRFSGSGSGTDFTLKISRVEAEDVGVYFCSQTTHVPWTFGGGTKLEIK
notes: Humanized
B9: 6A7-H2K1-IgG4 (antibody, V domains shown)
VH: QVQLVQSGAEVKKPGASVKVSCKASGYTFISYYIYWVRQAPGQGLEWIGGINPRNGGTNFNEKFKSRATLTVDTSISTAYMELSRLRSEDTAVYYCARHGNGVYWGQGTTVTVSS
VL: DVVMTQSPLSLPVTLGQPASISCRSSQSLLHSNGNTYLHWFQQRPGQSPRHLIYQVSNRFSGVPDRFSGSGSGTDFTLKISRVEAEDVGVYYCSQTTHVPWTFGGGTKVEIK
notes: Humanized
B10: 6A7-H1K2-IgG4 (antibody, V domains shown)
VH: QVQLVQSGAEVKKPGASVKVSCKASGYTFISYYIYWVRQAPGQGLEWMGGINPRNGGTNFNEKFKSRVTLTVDTSISTAYMELSRLRSEDTAVYYCARHGNGVYWGQGTTVTVSS
VL: DVVMTQSPLSLPVTLGQPASISCRSSQSLLHSNGNTYLHWYQQRPGQSPNHLIYQVSNRFSGVPDRFSGSGSGTDFTLKISRVEAEDVGVYFCSQTTHVPWTFGGGTKVEIK
notes: Humanized
B11: 6A7-H3K2-IgG4 (antibody, V domains shown)
VH: QVQLVQSGAEVKKPGASVKVSCKASGYTFISYYIYWVRQAPGQGLEWIGGINPRNGGTNFNEKFKSRATLTVDTSISTAYMELSRLRSEDTAVYYCTRHGNGVYWGQGTTVTVSS
VL: DVVMTQSPLSLPVTLGQPASISCRSSQSLLHSNGNTYLHWYQQRPGQSPNHLIYQVSNRFSGVPDRFSGSGSGTDFTLKISRVEAEDVGVYFCSQTTHVPWTFGGGTKVEIK
notes: Humanized
B12: 6A7-H4K1-IgG4 (antibody, V domains shown)
VH: QVQLVQSGAEVKKPGASVKLSCKASGYTFISYYIYWVKQAPGQGLEWIGGINPRNGGTNFNEKFKSRATLTVDTSISTAYMELSRLRSEDTAVYYCTRHGNGVYWGQGTTLTVSS
VL: DVVMTQSPLSLPVTLGQPASISCRSSQSLLHSNGNTYLHWFQQRPGQSPRHLIYQVSNRFSGVPDRFSGSGSGTDFTLKISRVEAEDVGVYYCSQTTHVPWTFGGGTKVEIK
notes: Humanized
B13: 7F10-H3K1-IgG4 (antibody, V domains shown)
VH: EVKLVESGGGLVQPGGSLRLSCATSGFTFSDYYMYWVRQAPEKRLEWVAYISYGGDSTFYPDTVRGRFTISRDNAKNALYLQMSRLKAEDTAVYYCARPAPSAHSYYLDYWGQGTTLTVSS
VL: DIQMTQSPSSLSASVGDRVTITCRASQDISNYLNWYQQKPGGAVKLLIYYTSRLHSGLPSRFSGSGSGTDFTFTISSLQPEDIATYYCQQGKTLPFTFASGTKLEIK
notes: Humanized
B14: 7F10-H3K3-IgG4 (antibody, V domains shown)
VH: EVKLVESGGGLVQPGGSLRLSCATSGFTFSDYYMYWVRQAPEKRLEWVAYISYGGDSTFYPDTVRGRFTISRDNAKNALYLQMSRLKAEDTAVYYCARPAPSAHSYYLDYWGQGTTLTVSS
VL: DIQMTQSTSSLSASVGDRVTITCRASQDISNYLNWYQQKPGGAVKLLIYYTSRLHSGLPSRFSGSGSGTDYTLTISSLQQEDIATYYCQQGKTLPFTFASGTKLEIK
notes: Humanized
B15: 7F10-H3K2-IgG4 (antibody, V domains shown)
VH: EVKLVESGGGLVQPGGSLRLSCATSGFTFSDYYMYWVRQAPEKRLEWVAYISYGGDSTFYPDTVRGRFTISRDNAKNALYLQMSRLKAEDTAVYYCARPAPSAHSYYLDYWGQGTTLTVSS
VL: DIQMTQSPSSLSASVGDRVTITCRASQDISNYLNWYQQKPGGAVKLLIYYTSRLHSGLPSRFSGSGSGTDYTFTISSLQPEDIATYYCQQGKTLPFTFASGTKLEIK
notes: Humanized
B16: 7F10-H3K4-IgG4 (antibody, V domains shown)
VH: EVKLVESGGGLVQPGGSLRLSCATSGFTFSDYYMYWVRQAPEKRLEWVAYISYGGDSTFYPDTVRGRFTISRDNAKNALYLQMSRLKAEDTAVYYCARPAPSAHSYYLDYWGQGTTLTVSS
VL: DIQMTQSTSSLSASVGDRVTITCRASQDISNYLNWYQQKPDGTVKLLIYYTSRLHSGLPSRFSGSGSGTDYTLTISSLQQEDIATYYCQQGKTLPFTFASGTKLEIK
notes: Humanized

Among the data in patent US20250034271A1 (EUCURE BEIJING BIOPHARMA, published 2025) are Kd, koff and kon values, retold here.

For the assay, the target named is T1, Histidine-tagged human CD40 protein (hCD40-His) (human, UniProt P25942 21-193).
T1 construct: not shown: histidine tag
T1 sequence (P25942 21-193 limits assumed): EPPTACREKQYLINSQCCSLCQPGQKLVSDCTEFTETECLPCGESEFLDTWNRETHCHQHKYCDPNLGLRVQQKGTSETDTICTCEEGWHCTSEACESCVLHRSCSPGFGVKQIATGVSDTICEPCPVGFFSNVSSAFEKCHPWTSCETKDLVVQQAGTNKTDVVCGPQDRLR
Description: SPR, Biacore T200; antibody on Protein A chip, hCD40-His injected; 1:1 fit. The procedure: The binding affinity of the anti-hCD40 antibodies were measured using surface plasmon resonance (SPR) using Biacore (Biacore, INC, Piscataway N.J.) T200 biosensor equipped with pre-immobilized Protein A sensor chips.
Anti-hCD40 antibodies were collected by transfecting CHO-S cells and then purified. The antibodies (1 μg/mL) were injected into Biacore T200 biosensor at 10 μL/min for about 24-33 seconds to achieve to a desired protein density (about 44-57 response units (RU)). […] Dissociation was monitored for 300 seconds. The chip was regenerated after the last injection of each titration with Glycine (pH 2.0, 30 μL/min for 12 seconds).
Take B1: binding was characterised by a dissociation constant (Kd) of 36.5 nM, the off-rate constant (koff) is 0.0205 s⁻¹ and the kon turned out to be 561000 M⁻¹ s⁻¹.
Molecule B2 came in with an equilibrium dissociation constant (Kd) of 2.6 nM, a koff of 0.000259 s⁻¹ and a kon of 99400 M⁻¹ s⁻¹.
As to B3, the Kd is 189 nM, the dissociation rate constant (koff) came to 0.00496 s⁻¹ and the kon amounted to 26300 M⁻¹ s⁻¹.
The corresponding values for B4 are 136 nM, 0.0039 s⁻¹ and 28700 M⁻¹ s⁻¹.
B5 displayed a Kd of 20.8 nM, an off-rate constant (koff) of 0.000574 s⁻¹ and an association rate constant (kon) of 27600 M⁻¹ s⁻¹.
The corresponding values for B6 are 111 nM, 0.00505 s⁻¹ and 45300 M⁻¹ s⁻¹.
The corresponding values for B7 are 280 nM, 0.00571 s⁻¹ and 20400 M⁻¹ s⁻¹.
The corresponding values for B8 are 3.49 nM, 0.000373 s⁻¹ and 107000 M⁻¹ s⁻¹.
On to B9, for which the Kd was determined as 298 nM, the koff came out at 0.00708 s⁻¹ and the kon came out at 23700 M⁻¹ s⁻¹.
The molecule B10 gave an equilibrium dissociation constant (Kd) of 187 nM, a koff of 0.00386 s⁻¹ and a kon of 20600 M⁻¹ s⁻¹.
The like results for B11 were, in that order, 5.74 nM, 0.000371 s⁻¹ and 64600 M⁻¹ s⁻¹.
In turn, B12 showed a Kd of 23.9 nM, an off-rate (koff) of 0.000572 s⁻¹ and a kon of 23900 M⁻¹ s⁻¹.
Molecule B13 displayed a Kd of 430 nM, an off-rate constant (koff) of 0.0568 s⁻¹ and a kon of 132000 M⁻¹ s⁻¹.
In turn, B14 gave a Kd of 238 nM, a koff of 0.0314 s⁻¹ and a kon of 132000 M⁻¹ s⁻¹.
The corresponding values for B15 are 380 nM, 0.0482 s⁻¹ and 127000 M⁻¹ s⁻¹.
The like results for B16 were, in that order, 184 nM, 0.0274 s⁻¹ and 149000 M⁻¹ s⁻¹.

What is called Kd is a measure of binding affinity in units of concentration. A low value points to tighter binding. As usually defined, the koff is a measure of how fast the partners let go of each other. Lower therefore signals a long-lived complex. What is called kon is the second-order rate constant of association. Read a high kon as fast association.
